Measured values published in patent US8361510B2, “Nanogels for cellular delivery of therapeutics” (Georgia Tech Research Corporation, priority 2008, dated 2013).
Where no end group is shown, it is not given here.

Test: siRNA encapsulation in nanogels ("breathing-in" loading, UV-vis of supernatant)
Assay type: physicochemical
Details: lyophilized nanogels reswollen in siRNA solution
Text: In vitro siRNA encapsulation and release. Our group employs a “breathing-in” method for the encapsulation of various macromolecules within nanogels. In a typical method, lyophilized nanogels are resuspended in an aqueous solution containing the macromolecule to be loaded. Importantly, this is done using a loading solution volume that is almost completely imbibed by the swelling nanogels. In this fashion, the hydrogel network imbibes the payload with high efficiency and without relying on simple equilibrium partitioning to determine the maximum loading level. […]
The encapsulation efficiency was determined via ultracentrifugation of the nanogel loading solution and measurement of supernatant siRNA concentration by UV-vis spectroscopy (Shimadzu UV-1601). The moles of siRNA in the loading solution (msiRNA, Loading) and in the supernatant (msiRNA, Supernatant) were determined via interpolation from a separately constructed standard curve of absorbance vs. concentration (R^2>0.99). The encapsulation efficiency (EE) of the system could then be calculated through analysis of the amount of siRNA in the loading solution and the remaining moles of siRNA in the supernatant after nanogel swelling was complete, as illustrated by Equation 1 and in similar encapsulation experiments. […]

With “YSA-conjugated nanogels: core/shell pNIPMAm nanogels with YSA peptide coupled to shell amines via maleimide (EMCA) (YSAYPDSVPMMSC; also: coupled to nanogel shell amines via maleimide (EMCA))” the siRNA encapsulation efficiency was 93±1%.
